B1: Hairpin Ribozyme (parent)
chain: GUCCUCUUUCACGUGCGCGUGAAAGAGAGAAGUGAACCAGAGAAACACACGUUGUGGUAUAUUACCUGGUA

Variants of: B1
Test: self-cleavage, relative activity (ratio to wild type); higher = more cleavage; co-transcriptional

Going from GUCCUCUUUCACGUGCGCGUGAAAGAGAGAAGUGAACCAGAGAAACACACGUUGAGGUAUAUUACCUAGUA [U55A G68A] to GUCCUCUUUCACGUGCGCGUGAAAGAGAGAAGUGAACCAGAGAAACACACGUUGAGGCAUAUUACCUGGUA [U55A U58C], the self-cleavage rises from 0.163 to 0.427.

First: GUCCUCUUUCACGUGCGCGUGAAAGAGAGAAGUGAACCAGAGAAACACACGUUGAGGGAUAUUACCUGGUA [U55A U58G]
Second: GUCCUCUUUCACGUGCGCGUGAAAGAGAGAAGUGAACCAGAGAAACACACGUUGAGGUACAUUACCUGGUA [U55A U60C]
The self-cleavage of the first is lower: 0.183 for the first, 0.712 for the second.

First: GUCCUCUUUCACGUGCGCGUGAAAGAGAGAAGUGAACCAGAGAAACACACGUUGAGGUAUAUAACCUGGUA [U55A U63A]
Second: GUCCUCUUUCACGUGCGCGUGAAAGAGAGAAGUGAACCAGAGAAACACACGUUGAGGUAUAUCACCUGGUA [U55A U63C]
The self-cleavage of the first is lower: 0.0786 for the first, 0.106 for the second.

Going from GUCCUCUUUCACGUGCGCGUGAAAGAGAGAAGUGAACCAGAGAAACACACGUUGAGGUAUAUUACCCGGUA [U55A U67C] to GUCCUCUUUCACGUGCGCGUGAAAGAGAGAAGUGAACCAGAGAAACACACGUUGAGGUAUAUUACCUGGCA [U55A U70C], the self-cleavage rises from 0.149 to 0.311.

Going from GUCCUCUUUCACGUGCGCGUGAAAGAGAGAAGUGAACCAGAGAAACACACGUUGAGGUAUAUUACCUGGGA [U55A U70G] to GUCCUCUUUCACGUGCGCGUGAAAGAGAGAAGUGAACCAGAGAAACACACGUUGCGGUAUGUUACCUGGUA [U55C A61G], the self-cleavage falls from 0.342 to 0.181.

First: GUCCUCUUUCACGUGCGCGUGAAAGAGAGAAGUGAACCAGAGAAACACACGUUGCGGUAUAUUUCCUGGUA [U55C A64U]
Second: GUCCUCUUUCACGUGCGCGUGAAAGAGAGAAGUGAACCAGAGAAACACACGUUGCGGUAUAUUAUCUGGUA [U55C C65U]
The self-cleavage of the first is lower: 0.154 for the first, 0.27 for the second.

First: GUCCUCUUUCACGUGCGCGUGAAAGAGAGAAGUGAACCAGAGAAACACACGUUGCGGUAUAUUACUUGGUA [U55C C66U]
Second: GUCCUCUUUCACGUGCGCGUGAAAGAGAGAAGUGAACCAGAGAAACACACGUUGCGUUAUAUUACCUGGUA [U55C G57U]
The self-cleavage of the first is lower: 0.157 for the first, 0.299 for the second.

First: GUCCUCUUUCACGUGCGCGUGAAAGAGAGAAGUGAACCAGAGAAACACACGUUGCGGUAUAUUACCUCGUA [U55C G68C]
Second: GUCCUCUUUCACGUGCGCGUGAAAGAGAGAAGUGAACCAGAGAAACACACGUUGCGGUAUAUUACCUUGUA [U55C G68U]
The self-cleavage of the first is higher: 0.159 for the first, 0.0915 for the second.

Going from GUCCUCUUUCACGUGCGCGUGAAAGAGAGAAGUGAACCAGAGAAACACACGUUGCGGUAAAUUACCUGGUA [U55C U60A] to GUCCUCUUUCACGUGCGCGUGAAAGAGAGAAGUGAACCAGAGAAACACACGUUGCGGUAGAUUACCUGGUA [U55C U60G], the self-cleavage rises from 0.168 to 0.347.

Going from GUCCUCUUUCACGUGCGCGUGAAAGAGAGAAGUGAACCAGAGAAACACACGUUGCGGUAUAGUACCUGGUA [U55C U62G] to GUCCUCUUUCACGUGCGCGUGAAAGAGAGAAGUGAACCAGAGAAACACACGUUGCGGUAUAUCACCUGGUA [U55C U63C], the self-cleavage rises from 0.132 to 0.233.

Compared with GUCCUCUUUCACGUGCGCGUGAAAGAGAGAAGUGAACCAGAGAAACACACGUUGCGGUAUAUUACCCGGUA [U55C U67C], GUCCUCUUUCACGUGCGCGUGAAAGAGAGAAGUGAACCAGAGAAACACACGUUGCGGUAUAUUACCUGGGA [U55C U70G] is higher in self-cleavage: 0.172 for the first, 0.203 for the second.

Going from GUCCUCUUUCACGUGCGCGUGAAAGAGAGAAGUGAACCAGAGAAACACACGUUGGGGUCUAUUACCUGGUA [U55G A59C] to GUCCUCUUUCACGUGCGCGUGAAAGAGAGAAGUGAACCAGAGAAACACACGUUGGGGUGUAUUACCUGGUA [U55G A59G], the self-cleavage falls from 0.156 to 0.139.

Going from GUCCUCUUUCACGUGCGCGUGAAAGAGAGAAGUGAACCAGAGAAACACACGUUGGGGUAUCUUACCUGGUA [U55G A61C] to GUCCUCUUUCACGUGCGCGUGAAAGAGAGAAGUGAACCAGAGAAACACACGUUGGGGUAUUUUACCUGGUA [U55G A61U], the self-cleavage falls from 0.21 to 0.0838.

Going from GUCCUCUUUCACGUGCGCGUGAAAGAGAGAAGUGAACCAGAGAAACACACGUUGGGGUAUAUUACCUGGUC [U55G A71C] to GUCCUCUUUCACGUGCGCGUGAAAGAGAGAAGUGAACCAGAGAAACACACGUUGGGGUAUAUUAACUGGUA [U55G C65A], the self-cleavage falls from 0.708 to 0.3.

First: GUCCUCUUUCACGUGCGCGUGAAAGAGAGAAGUGAACCAGAGAAACACACGUUGGGGUAUAUUACAUGGUA [U55G C66A]
Second: GUCCUCUUUCACGUGCGCGUGAAAGAGAGAAGUGAACCAGAGAAACACACGUUGGAGUAUAUUACCUGGUA [U55G G56A]
The self-cleavage of the first is higher: 0.201 for the first, 0.125 for the second.

Compared with GUCCUCUUUCACGUGCGCGUGAAAGAGAGAAGUGAACCAGAGAAACACACGUUGGGUUAUAUUACCUGGUA [U55G G57U], GUCCUCUUUCACGUGCGCGUGAAAGAGAGAAGUGAACCAGAGAAACACACGUUGGGGUAUAUUACCUAGUA [U55G G68A] is higher in self-cleavage: 0.222 for the first, 0.237 for the second.

First: GUCCUCUUUCACGUGCGCGUGAAAGAGAGAAGUGAACCAGAGAAACACACGUUGGGGUAUAUUACCUCGUA [U55G G68C]
Second: GUCCUCUUUCACGUGCGCGUGAAAGAGAGAAGUGAACCAGAGAAACACACGUUGGGGUAUAUUACCUGAUA [U55G G69A]
The self-cleavage of the first is higher: 0.251 for the first, 0.178 for the second.

Going from GUCCUCUUUCACGUGCGCGUGAAAGAGAGAAGUGAACCAGAGAAACACACGUUGGGGGAUAUUACCUGGUA [U55G U58G] to GUCCUCUUUCACGUGCGCGUGAAAGAGAGAAGUGAACCAGAGAAACACACGUUGGGGUACAUUACCUGGUA [U55G U60C], the self-cleavage rises from 0.206 to 0.408.

First: GUCCUCUUUCACGUGCGCGUGAAAGAGAGAAGUGAACCAGAGAAACACACGUUGGGGUAUAAUACCUGGUA [U55G U62A]
Second: GUCCUCUUUCACGUGCGCGUGAAAGAGAGAAGUGAACCAGAGAAACACACGUUGGGGUAUACUACCUGGUA [U55G U62C]
The self-cleavage of the first is lower: 0.104 for the first, 0.161 for the second.

— the RNAGym collection of RNA variant scans (doi:10.7554/elife.80360)
